Results from patent US20200024322A1 (Eli Lilly, published 2020).
Numbered stars: 1 amine (or outer) side, 2 acyl side, 3 side chain; on linkers, the order of the positions; unused ones are H or OH. Square brackets hold non-standard residues; d marks the D form. Side chains are listed from the residue outwards. Ends that are not written are not given here. * marks the point of attachment. C20 diacid = O=C(O)CCCCCCCCCCCCCCCCCCC(=O)*; γGlu = O=C(O)[C@H](CCC(=O)[*:2])N[*:1]; AEEA = NCCOCCOCC(=O)O; Aib = CC(C)(N)C(=O)O

T1: human GIP receptor (human, UniProt P48546 22-466)
T1 construct: whole, on cells; Used as crude membranes of stably transfected CHO cells; also called hGIPR
T1 sequence (looked up): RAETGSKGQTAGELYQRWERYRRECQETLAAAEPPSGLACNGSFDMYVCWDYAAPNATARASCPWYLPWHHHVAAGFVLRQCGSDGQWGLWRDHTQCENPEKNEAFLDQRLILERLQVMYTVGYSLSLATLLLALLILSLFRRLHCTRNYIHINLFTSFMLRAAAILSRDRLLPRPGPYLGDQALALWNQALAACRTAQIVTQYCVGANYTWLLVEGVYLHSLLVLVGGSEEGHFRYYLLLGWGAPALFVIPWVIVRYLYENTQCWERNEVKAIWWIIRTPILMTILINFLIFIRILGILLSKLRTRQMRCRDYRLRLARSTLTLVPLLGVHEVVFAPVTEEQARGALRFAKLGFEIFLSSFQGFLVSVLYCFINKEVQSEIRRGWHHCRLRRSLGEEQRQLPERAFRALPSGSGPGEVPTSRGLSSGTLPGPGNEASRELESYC


Tests used:
[1] = target: T1, human GIP receptor; experiment: SPA, [125I]-GIP displacement, hGIPR membranes
[2] = target: T2, human GLP-1 receptor (human, UniProt P43220 24-463); experiment: SPA, [125I]-GLP-1 displacement, hGLP-1R membranes
T2 construct: whole, on cells; Used as crude membranes of stably transfected HEK293 cells; also called hGLP1R; hGLP-1R

Binder	Ki [1] [nM]	Ki [2] [nM]
Y[Aib]EGTFTSDK([AEEA-AEEA-γGlu-C20 diacid])SILLDKIAQ[Aib]AFIEYLIEGGPSSGAPPPS-NH2 (N-terminus assumed; SMILES CC[C@H](C)[C@H](NC(=O)[C@H](CCCCN)NC(=O)[C@H](CC(=O)O)NC(=O)[C@H](CC(C)C)NC(=O)[C@H](CC(C)C)NC(=O)[C@@H](NC(=O)[C@H](CO)NC(=O)[C@H](CCCCNC(=O)COCCOCCNC(=O)COCCOCCNC(=O)CC[C@H](NC(=O)CCCCCCCCCCCCCCCCCCC(=O)O)C(=O)O)NC(=O)[C@H](CC(=O)O)NC(=O)[C@H](CO)NC(=O)[C@@H](NC(=O)[C@H](Cc1ccccc1)NC(=O)[C@@H](NC(=O)CNC(=O)[C@H](CCC(=O)O)NC(=O)C(C)(C)NC(=O)[C@@H](N)Cc1ccc(O)cc1)[C@@H](C)O)[C@@H](C)O)[C@@H](C)CC)C(=O)N[C@@H](C)C(=O)N[C@@H](CCC(N)=O)C(=O)NC(C)(C)C(=O)N[C@@H](C)C(=O)N[C@@H](Cc1ccccc1)C(=O)N[C@H](C(=O)N[C@@H](CCC(=O)O)C(=O)N[C@@H](Cc1ccc(O)cc1)C(=O)N[C@@H](CC(C)C)C(=O)N[C@H](C(=O)N[C@@H](CCC(=O)O)C(=O)NCC(=O)NCC(=O)N1CCC[C@H]1C(=O)N[C@@H](CO)C(=O)N[C@@H](CO)C(=O)NCC(=O)N[C@@H](C)C(=O)N1CCC[C@H]1C(=O)N1CCC[C@H]1C(=O)N1CCC[C@H]1C(=O)N[C@@H](CO)C(N)=O)[C@@H](C)CC)[C@@H](C)CC) [Example 23]	0.258	6.32
Y[Aib]EGTFTSDYSILLDKIAQ[Aib]AFIEYK([AEEA-AEEA-γGlu-C20 diacid])IEGGPSSGAPPPS-NH2 (N-terminus assumed; SMILES CC[C@H](C)[C@H](NC(=O)[C@H](CCCCN)NC(=O)[C@H](CC(=O)O)NC(=O)[C@H](CC(C)C)NC(=O)[C@H](CC(C)C)NC(=O)[C@@H](NC(=O)[C@H](CO)NC(=O)[C@H](Cc1ccc(O)cc1)NC(=O)[C@H](CC(=O)O)NC(=O)[C@H](CO)NC(=O)[C@@H](NC(=O)[C@H](Cc1ccccc1)NC(=O)[C@@H](NC(=O)CNC(=O)[C@H](CCC(=O)O)NC(=O)C(C)(C)NC(=O)[C@@H](N)Cc1ccc(O)cc1)[C@@H](C)O)[C@@H](C)O)[C@@H](C)CC)C(=O)N[C@@H](C)C(=O)N[C@@H](CCC(N)=O)C(=O)NC(C)(C)C(=O)N[C@@H](C)C(=O)N[C@@H](Cc1ccccc1)C(=O)N[C@H](C(=O)N[C@@H](CCC(=O)O)C(=O)N[C@@H](Cc1ccc(O)cc1)C(=O)N[C@@H](CCCCNC(=O)COCCOCCNC(=O)COCCOCCNC(=O)CC[C@H](NC(=O)CCCCCCCCCCCCCCCCCCC(=O)O)C(=O)O)C(=O)N[C@H](C(=O)N[C@@H](CCC(=O)O)C(=O)NCC(=O)NCC(=O)N1CCC[C@H]1C(=O)N[C@@H](CO)C(=O)N[C@@H](CO)C(=O)NCC(=O)N[C@@H](C)C(=O)N1CCC[C@H]1C(=O)N1CCC[C@H]1C(=O)N1CCC[C@H]1C(=O)N[C@@H](CO)C(N)=O)[C@@H](C)CC)[C@@H](C)CC) [Example 35]	0.0358	54.6
Y[Aib]EGTFTSDYSIK([AEEA-AEEA-γGlu-C20 diacid])LDKIAQ[Aib]AFIEYLIEGGPSSGAPPPS-NH2 (N-terminus assumed; SMILES CC[C@H](C)[C@H](NC(=O)[C@H](CCCCN)NC(=O)[C@H](CC(=O)O)NC(=O)[C@H](CC(C)C)NC(=O)[C@H](CCCCNC(=O)COCCOCCNC(=O)COCCOCCNC(=O)CC[C@H](NC(=O)CCCCCCCCCCCCCCCCCCC(=O)O)C(=O)O)NC(=O)[C@@H](NC(=O)[C@H](CO)NC(=O)[C@H](Cc1ccc(O)cc1)NC(=O)[C@H](CC(=O)O)NC(=O)[C@H](CO)NC(=O)[C@@H](NC(=O)[C@H](Cc1ccccc1)NC(=O)[C@@H](NC(=O)CNC(=O)[C@H](CCC(=O)O)NC(=O)C(C)(C)NC(=O)[C@@H](N)Cc1ccc(O)cc1)[C@@H](C)O)[C@@H](C)O)[C@@H](C)CC)C(=O)N[C@@H](C)C(=O)N[C@@H](CCC(N)=O)C(=O)NC(C)(C)C(=O)N[C@@H](C)C(=O)N[C@@H](Cc1ccccc1)C(=O)N[C@H](C(=O)N[C@@H](CCC(=O)O)C(=O)N[C@@H](Cc1ccc(O)cc1)C(=O)N[C@@H](CC(C)C)C(=O)N[C@H](C(=O)N[C@@H](CCC(=O)O)C(=O)NCC(=O)NCC(=O)N1CCC[C@H]1C(=O)N[C@@H](CO)C(=O)N[C@@H](CO)C(=O)NCC(=O)N[C@@H](C)C(=O)N1CCC[C@H]1C(=O)N1CCC[C@H]1C(=O)N1CCC[C@H]1C(=O)N[C@@H](CO)C(N)=O)[C@@H](C)CC)[C@@H](C)CC) [Example 26]	0.176	4.22
Y[Aib]EGTFTSDASILLDKK([AEEA-AEEA-γGlu-C20 diacid])AQ[Aib]AFIEYLIEGGPSSGAPPPS-NH2 (N-terminus assumed; SMILES CC[C@H](C)[C@H](NC(=O)[C@H](CC(C)C)NC(=O)[C@H](Cc1ccc(O)cc1)NC(=O)[C@H](CCC(=O)O)NC(=O)[C@@H](NC(=O)[C@H](Cc1ccccc1)NC(=O)[C@H](C)NC(=O)C(C)(C)NC(=O)[C@H](CCC(N)=O)NC(=O)[C@H](C)NC(=O)[C@H](CCCCNC(=O)COCCOCCNC(=O)COCCOCCNC(=O)CC[C@H](NC(=O)CCCCCCCCCCCCCCCCCCC(=O)O)C(=O)O)NC(=O)[C@H](CCCCN)NC(=O)[C@H](CC(=O)O)NC(=O)[C@H](CC(C)C)NC(=O)[C@H](CC(C)C)NC(=O)[C@@H](NC(=O)[C@H](CO)NC(=O)[C@H](C)NC(=O)[C@H](CC(=O)O)NC(=O)[C@H](CO)NC(=O)[C@@H](NC(=O)[C@H](Cc1ccccc1)NC(=O)[C@@H](NC(=O)CNC(=O)[C@H](CCC(=O)O)NC(=O)C(C)(C)NC(=O)[C@@H](N)Cc1ccc(O)cc1)[C@@H](C)O)[C@@H](C)O)[C@@H](C)CC)[C@@H](C)CC)C(=O)N[C@@H](CCC(=O)O)C(=O)NCC(=O)NCC(=O)N1CCC[C@H]1C(=O)N[C@@H](CO)C(=O)N[C@@H](CO)C(=O)NCC(=O)N[C@@H](C)C(=O)N1CCC[C@H]1C(=O)N1CCC[C@H]1C(=O)N1CCC[C@H]1C(=O)N[C@@H](CO)C(N)=O) [Example 85]	0.621	1.87
Y[Aib]EGTFTSDYSILLDKIAQ[Aib]AFIEYLIEK([AEEA-AEEA-γGlu-C20 diacid])GPSSGAPPPS-NH2 (N-terminus assumed; SMILES CC[C@H](C)[C@H](NC(=O)[C@H](CCCCN)NC(=O)[C@H](CC(=O)O)NC(=O)[C@H](CC(C)C)NC(=O)[C@H](CC(C)C)NC(=O)[C@@H](NC(=O)[C@H](CO)NC(=O)[C@H](Cc1ccc(O)cc1)NC(=O)[C@H](CC(=O)O)NC(=O)[C@H](CO)NC(=O)[C@@H](NC(=O)[C@H](Cc1ccccc1)NC(=O)[C@@H](NC(=O)CNC(=O)[C@H](CCC(=O)O)NC(=O)C(C)(C)NC(=O)[C@@H](N)Cc1ccc(O)cc1)[C@@H](C)O)[C@@H](C)O)[C@@H](C)CC)C(=O)N[C@@H](C)C(=O)N[C@@H](CCC(N)=O)C(=O)NC(C)(C)C(=O)N[C@@H](C)C(=O)N[C@@H](Cc1ccccc1)C(=O)N[C@H](C(=O)N[C@@H](CCC(=O)O)C(=O)N[C@@H](Cc1ccc(O)cc1)C(=O)N[C@@H](CC(C)C)C(=O)N[C@H](C(=O)N[C@@H](CCC(=O)O)C(=O)N[C@@H](CCCCNC(=O)COCCOCCNC(=O)COCCOCCNC(=O)CC[C@H](NC(=O)CCCCCCCCCCCCCCCCCCC(=O)O)C(=O)O)C(=O)NCC(=O)N1CCC[C@H]1C(=O)N[C@@H](CO)C(=O)N[C@@H](CO)C(=O)NCC(=O)N[C@@H](C)C(=O)N1CCC[C@H]1C(=O)N1CCC[C@H]1C(=O)N1CCC[C@H]1C(=O)N[C@@H](CO)C(N)=O)[C@@H](C)CC)[C@@H](C)CC) [Example 38]	0.104	31.3
Y[Aib]EGTFTSDYSILLDKIAQ[Aib]AFK([AEEA-AEEA-γGlu-C20 diacid])EYLIEGGPSSGAPPPS-NH2 [Example 33]	6.4	361
Y[Aib]EGTFTSDYSILLK([AEEA-AEEA-γGlu-C20 diacid])KIAQ[Aib]AFIEYLIEGGPSSGAPPPS-NH2 (N-terminus assumed; SMILES CC[C@H](C)[C@H](NC(=O)[C@H](CCCCN)NC(=O)[C@H](CCCCNC(=O)COCCOCCNC(=O)COCCOCCNC(=O)CC[C@H](NC(=O)CCCCCCCCCCCCCCCCCCC(=O)O)C(=O)O)NC(=O)[C@H](CC(C)C)NC(=O)[C@H](CC(C)C)NC(=O)[C@@H](NC(=O)[C@H](CO)NC(=O)[C@H](Cc1ccc(O)cc1)NC(=O)[C@H](CC(=O)O)NC(=O)[C@H](CO)NC(=O)[C@@H](NC(=O)[C@H](Cc1ccccc1)NC(=O)[C@@H](NC(=O)CNC(=O)[C@H](CCC(=O)O)NC(=O)C(C)(C)NC(=O)[C@@H](N)Cc1ccc(O)cc1)[C@@H](C)O)[C@@H](C)O)[C@@H](C)CC)C(=O)N[C@@H](C)C(=O)N[C@@H](CCC(N)=O)C(=O)NC(C)(C)C(=O)N[C@@H](C)C(=O)N[C@@H](Cc1ccccc1)C(=O)N[C@H](C(=O)N[C@@H](CCC(=O)O)C(=O)N[C@@H](Cc1ccc(O)cc1)C(=O)N[C@@H](CC(C)C)C(=O)N[C@H](C(=O)N[C@@H](CCC(=O)O)C(=O)NCC(=O)NCC(=O)N1CCC[C@H]1C(=O)N[C@@H](CO)C(=O)N[C@@H](CO)C(=O)NCC(=O)N[C@@H](C)C(=O)N1CCC[C@H]1C(=O)N1CCC[C@H]1C(=O)N1CCC[C@H]1C(=O)N[C@@H](CO)C(N)=O)[C@@H](C)CC)[C@@H](C)CC) [Example 28]	0.24	21.1
YXEGTXTSDXSIXLDEKAQXEFIXYLIEGGPSSGAPPPS (Aib2; αMeF(2F)6; 4Pal10; αMeL13; K17((2-[2-(2-Amino-ethoxy)-ethoxy]-acetyl)2-(γ-Glu)-CO-(CH2)16-CO2H); Aib20; D-Glu24; C-terminal NH2) [Example 204]	0.0704	
